Laboratory results taken from patent US20120315277A1, “Compositions and Methods for the Therapy and Diagnosis of Influenza” (priority 2011, published 2012).

What was measured:
[1] = test system: M2 (A/Hong Kong/483/97) expressed on CHO cells; assay type: binding, influenza A virus
[2] = test system: Influenza A (A/Puerto Rico/8/34) virus; assay type: binding, influenza A virus H1N1

B1: 3253_P10 (antibody, V domains shown)
VH: QVQLQESGPGLLKPSDTLALTCTVSGGSITSDYWSWIRQPPGRGLDWIGFFYNGGSTKYNPSLKSRVTISADTSKNQLSLKLTSVTAADTGVYYCARHDAKFSGSYYVASWGQGTRVTVSS
VL: DIQMTQSPSSLSASVGDRVTISCRASQSISTYLNWYQQQPGKAPKVLISGATDLQSGVPSRFSGSGSGTDFTLTISSLQPEDFATYYCQQSYNTPLIFGQGTKLEIK
FACS M2-HK MFI [1]: 43
Virus ELISA OD A450 [2]: 0.50

B2: 3244_I10 (antibody, V domains shown)
VH: QVQLQESGPGLLKPSDTLALTCTVSGGSITSDYWSWIRQPPGRGLDWIGFFYNGGSTKYNPSLKSRVTISADTSKNQLSLKLTSVTAADTGVYYCARHDAKFSGSYYVASWGQGTRVTVSS
VL: DIQMTQSPSSLSASVGDRVTISCRASQSISTYLNWYQQQPGKAPKVLIFGATNLQSGVPSRFSGSGSGTDFTLTISSLQPEDFATYYCQQSYNTPLIFGQGTKLEIK
FACS M2-HK MFI [1]: 434
Virus ELISA OD A450 [2]: 3.01

B3: 3243_J07 (antibody, V domains shown)
VH: QVQLQESGPGLLKPSDTLALTCTVSGGSITSDYWSWIRQPPGRGLDWIGFFYNGGSTKYNPSLKSRVTISADTSKNQLSLKLTSVTAADTGVYYCARHDVKFSGSYYVASWGQGTRVTVSS
VL: DIQMTQSPSSLSASVGDRVTISCRASQSISTYLNWYQQQPGKAPKVLISGATNLQSGVPSRFSGSGSGTDFTLTISSLQPEDFATYYCQQSYNTPLIFGQGTKLEIK
FACS M2-HK MFI [1]: 131
Virus ELISA OD A450 [2]: 2.94

B4: 3136_G05 (antibody, V domains shown)
VH: QVQLQESGPGLVKPSETLSLTCSVSGGSISSDFWSWIRQPPGKGLEWIGYVYNRGSTKYSPSLKSRVTISADMSKNQFSLNMSSVTAADTAVYYCAKNGRSSTSWGIDVWGKGTTVTVSS
VL: DIQMTQSPSSLSASVGDRLTITCRASQSISTYLHWYQQKPGKAPKLLIYAASSLQSGVPSRFSGSRSGTDFTLTISSLQPDDFATYYCQQSYSPPLTFGPGTKVDMK
FACS M2-HK MFI [1]: 109

B5: 3259_J21 (antibody, V domains shown)
VH: QVQLQESGPRVVRPSETLSLTCTVSGGSISSYNWIWIRQPPGKGLEWIGHIYDYGRTFYNSSLQSRPTISVDASKNQLSLRLTSVTASDTAVYYCARPLGILHYYAMDLWGQGTTVTVSS
VL: DIQMTQSPLSVSVSVGDRVTIACRASQSIDKFLNWYQQKPGKAPKLLIYGASNLHSGAPSRFSASGSGTDFTLTITNIQTEDFATYLCQQSFSVPAFGGGTKVEIK
FACS M2-HK MFI [1]: 1673
Virus ELISA OD A450 [2]: 2.40

B6: 3260_D19 (antibody, V domains shown)
VH: DMQLVESGGGLVPPGGSLRLSCAASGFSVSDNYINWVRQAPGKGLDWVSVFYSADRTSYADSVKGRFTVSSHDSKNTVYLQMNSLRAEDTAVYYCARVQKSYYGMDVWGQGTTVTVSS
VL: GIQMTQSPSSLSASVGDRVTITCRASQSISRYLNWYLQKPGKAPKLLISGASSLQSGVPSRFSGTGSGTEFTLTISSLQPEDFATYYCQQTFSIPLFGQGTKVEIK
FACS M2-HK MFI [1]: 846
Virus ELISA OD A450 [2]: 2.46

B7: 3242_P05 (antibody, V domains shown)
VH: DMQLVESGGGLVPPGGSLRLSCAASGFSVSDNYINWVRQAPGKGLDWVSVFYSADRTSYADSVKGRFTVSSHDSKNTVYLQMNSLRAEDTAVYYCARVQKSYYGMDVWGQGTTVTVSS
VL: GIQMTQSPSSLSASVGDRVTITCRASQSISRYLNWYLQKPGKAPKLLISGASSLQSGVPSRFSGTGSGTEFTLTISSLQPEDFATYYCQQTFSIPLFGQGTKVEIK
FACS M2-HK MFI [1]: 596
Virus ELISA OD A450 [2]: 0.50

B8: 3139_P23 (antibody, V domains shown)
VH: QVQLQESGPRLVKPSESLSLTCTVSGGSISNSFWGWIRQPPGEGLEWIGYVYNSGNTKYNPSLKSRVTISRDTSKSQLYMKLRSVTAADTAVYYCARHDDASHGYSISWGHGTLVTVSS
VL: DIQMTQSPSSLSASVGDRVTITCRASQTISTYLNWYQQKSGKAPKLLIYAASGLQSGVPSRFSGSGSGTDFTLTISSLQPEDFATYFCQQSYNTPLTFGQGTKVEIK
FACS M2-HK MFI [1]: 110
Virus ELISA OD A450 [2]: 1.02

B9: 3248_P18 (antibody, V domains shown)
VH: QVQLQESGPGLVKPSETLSLTCTVSGGSISAYHWSWIRQPPGKGLEWIGHIFDSGSTYYNPSLKSRVTISLDASKNQLSLRLTSVTASDTAIYYCARPLGSRYYYGMDVWGQGTTVTVSS
VL: DIQMTQSPSSLSASVGDRVTITCRASQSISRYLNWYQQKPGKAPKLLIYGASTLQNGAPSRFSGSGSGTDFTLTISSLQPEDSATYLCQQSYSVPAFGGGTKVEVK
FACS M2-HK MFI [1]: 967
Virus ELISA OD A450 [2]: 0.56

B10: 3252_C13 (antibody, V domains shown)
VH: QVQLQESGPGLVKPSETLSLTCTVSGASISSDYWSWIRLPPGKGLEWIGYIYNRGSTKYTPSLKSRVTISLDTAENQFSLRLRSVTAADTAIYYCARHVGGHTYGIDYWGQGTLVTVSS
VL: DIQMTQSPSSLSASVGDRVTITCRASQSISNYLNWYQHKPGEAPKLLNYAASSLQSGVPSRFSASGSGTDFTLTISSLQPEDFATYYCQQSYNTPITFGQGTRLEIK
FACS M2-HK MFI [1]: 449

B11: 3255_J06 (antibody, V domains shown)
VH: QVQLQESGPGLVKPSETLSLTCTVSGASISSDYWSWIRLPPGKGLEWIGYIYNRGSTKYTPSLKSRVTISLDTAENQFSLRLRSVTAADTAVYYCARHVGGHTYGIDYWGQGTLVTVSS
VL: DIQMTQSPSSLSASVGDRVTITCRASQSISNYLNWYQHKPGEAPKLLNYAASSLQSGVPSRFSASGSGTDFTLSISGLQPEDFATYYCQQSYNTPITFGPGTRLEIK
FACS M2-HK MFI [1]: 442

B12: 3420_I23 (antibody, V domains shown)
VH: QVQLQESGPGLVKPSETLSVTCKVSGDSISSYSWSWIRQPPGKGLEWVGYLYYSGSTKYNPSLKSRTTISVDTSTNQLSLKLSFVTAADTAVYFCARTGSESTTGYGMDVWGQGTTVTVSS
VL: DIQMTQSPSSLSASVGDRVTITCRASQSISTYLNWYQQKPGKAPKLLIYAASSLHSGVPSRFSGSGSGTDFALTISSLQPEDFATYYCQQSYSPPITFGQGTRLEIK
FACS M2-HK MFI [1]: 112

B13: 3362_B11 (antibody, V domains shown)
VH: QVQLQASGPGLVKPSETLSLTCTVSGDSITSGAYYWTWIRQHPGKGLEWIGYIYYSGNTYYNPSLKSRVTISLDTSKNQFSLKVNSVTAADTAVYYCARAASTSVLGYGMDVWGQGTTVTVSS
VL: DIQMTQSPSSLSASVGDRVTITCRASQSISRYLNWYQQEPGKAPKLLVYAASSLQSGVPSRFSGSGSGTDFTLTISSLQPEDFATYYCQQSYSTPLTFGQGTRLEIK
FACS M2-HK MFI [1]: 218
Virus ELISA OD A450 [2]: 1.83

B14: 3241_G23 (antibody, V domains shown)
VH: QVQLQQSGPGLVKPSQTLSLTCTVSGGPVSGGGYSWNWIRQRPGQGLEWVGFMFHSGSPRYNPTLKSRITISVDTSKNLVSLKLSSVTAADTAVYFCARVGQMDKYYAMDVWGQGTTVTVSS
VL: DIQMTQSPSSLSSSVGDRVTITCRASQSIGAYVNWYQQKAGKAPQVLIFGASNLQSGVPSRFSGSGSGTDFTLTISSLQPEDFATYFCQQTYSTPITFGQGTRLEIK
FACS M2-HK MFI [1]: 1697
Virus ELISA OD A450 [2]: 3.02
